This passage reports binding result, Kd and koff results from patent publication US20230235080A1, “TROPHOBLAST CELL-SURFACE ANTIGEN-2 (TROP-2) ANTIBODIES” (Bionecure Therapeutics, Inc., priority 2020, published 2023).

The target in one assay is T1, human EPCAM-His (human, UniProt P16422 24-265).
T1 construct: also called hEPCAM
T1 sequence (looked up): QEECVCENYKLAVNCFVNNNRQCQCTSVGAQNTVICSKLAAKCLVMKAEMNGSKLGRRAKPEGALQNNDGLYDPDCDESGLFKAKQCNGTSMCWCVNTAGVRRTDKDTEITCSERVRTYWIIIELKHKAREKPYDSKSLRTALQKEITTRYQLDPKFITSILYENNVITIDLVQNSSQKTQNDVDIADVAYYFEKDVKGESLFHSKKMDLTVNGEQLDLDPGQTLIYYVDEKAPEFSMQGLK
Put plainly: ELISA on coated antigen, one antibody dilution (concentration not given), detected by GAH-HRP, OD450nm. The method, then:
(§1) The cross-reactivity of purified IgGs to the Trop-2 antigens from different species was tested by ELISA. In this experiment, a microtiter plate was coated overnight at 4° C. with 50 µL/well of 1 µg/mL human Trop-2ECD-6His, mouse Trop-2-His, cynomolgus Trop-2-His, human EPCAM-His, and a non-related protein. The plate was washed and blocked for 1 hr at 37° C., and then washed with wash buffer. Purified anti-Trop-2 antibodies appropriately diluted in PBS were added to wells and incubated for 1 hour at 37° C. After washing, bound antibodies were detected using HRP-conjugated goat-anti-human IgG antibody. Color development and absorbance at OD450 nm were read. A non-specific human IgG1 was included as a negative control, while hRS7 was used as a positive control.
On the technique in general: ELISA stands for enzyme-linked immunosorbent assay.

Another assay has as its target T2, mouse Trop-2-His (mouse, UniProt Q8BGV3 25-270).
T2 sequence (looked up): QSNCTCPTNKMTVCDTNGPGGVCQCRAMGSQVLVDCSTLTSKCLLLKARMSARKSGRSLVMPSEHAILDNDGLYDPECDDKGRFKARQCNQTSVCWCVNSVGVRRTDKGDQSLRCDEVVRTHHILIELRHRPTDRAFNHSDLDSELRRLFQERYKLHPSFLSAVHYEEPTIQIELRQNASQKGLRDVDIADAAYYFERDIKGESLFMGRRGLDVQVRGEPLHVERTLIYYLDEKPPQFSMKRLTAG
Described as above. The method, then: as §1

Assay [1] concerns the target T3, human Trop-2-ECD-6His fusion protein (human, UniProt P09758 27-274).
T3 construct: Expressed in a human 293 cell line; also called huTrop-2; human Trop-2 antigen
T3 sequence: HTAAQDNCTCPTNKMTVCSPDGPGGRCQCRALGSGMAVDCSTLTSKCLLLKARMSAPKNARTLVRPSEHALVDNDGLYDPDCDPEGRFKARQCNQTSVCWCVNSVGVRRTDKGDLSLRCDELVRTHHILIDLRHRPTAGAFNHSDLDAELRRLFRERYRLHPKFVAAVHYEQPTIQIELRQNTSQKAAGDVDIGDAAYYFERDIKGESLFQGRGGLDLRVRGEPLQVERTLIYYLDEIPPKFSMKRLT
Put plainly: BLI (Octet), antibody at 8 ug/ml, human Trop-2ECD-6His at 3.125-50 nM. The method, then: The binding affinity of the purified anti-Trop-2 IgGs to human Trop-2 protein were determined by Octet system based on Bio-Layer Interferometry (BLI) technique. BLI is a layer of molecules attached to the tip of an optic fiber which creates an interference pattern at the detector, any change in the number of molecules bound causes a measured shift in the pattern. Octet system enables real-time analysis for determination of affinity and kinetics from biomolecular interactions in 96-well microplates. […] A1X4 or A1,2X4 antibody was diluted and added to the assigned wells at a final concentration 8 µg/ml. The plate was put in the Octet system and assay was started. The data was analyzed using the Octet Data Acquisition Software (fortebio data analysis 10.0) to calculate an association rate constant Kon, a dissociation rate constant Koff, and a dissociation constant Kd (Kd = Koff/Kon).

The target in assay [2] is T4, human Trop-2 on Trop-2 positive cancer cells (human, UniProt P09758 27-323).
T4 construct: Endogenous Trop-2 of human tumour cell lines
T4 sequence (looked up): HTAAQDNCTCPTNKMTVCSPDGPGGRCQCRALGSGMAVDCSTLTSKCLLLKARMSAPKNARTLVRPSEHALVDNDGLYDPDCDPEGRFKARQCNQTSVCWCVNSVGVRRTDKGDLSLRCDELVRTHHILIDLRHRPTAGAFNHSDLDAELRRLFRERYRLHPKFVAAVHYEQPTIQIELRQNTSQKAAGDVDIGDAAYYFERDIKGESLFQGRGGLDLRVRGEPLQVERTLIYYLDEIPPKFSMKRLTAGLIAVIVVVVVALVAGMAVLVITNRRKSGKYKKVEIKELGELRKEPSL
As to the kind of experiment: flow cytometry on MDA-MB-468 cells, MFI at 4 °C against the antibody concentration (about 400 to 10000 ng/ml); Kd (µg/ml) printed beside the legend. The method, then: Internalizationi and degradation of anti-Trop-2 antibodies was measured by flow cytometry. In this study, fluorescent-conjugated secondary antibodies were used to detect the primary antibodies left on after internalization.
Next, either hRS7, or A1X4, or A1,2X4 antibody was added to cells in FACS buffer at concentrations of 400, 1000, 3000, or 10000 ng/ml, respectively, and incubated for 30 minutes at 4° C. After incubation, the cells were washed three times with FACS buffer to removed unbound antibody. The cells were then incubated at 37° C. with 5% CO₂ for antibody internalization. After 2 hours, the cells were dissociated with Trypsin and stained with fluorescent-conjugated goat anti-human IgG secondary antibodies for 30 minutes on ice in dark before being analyzed using Beckman flow cytometry system. The fluorescent intensity and cell binding percentage at each time point were analyzed by Beckman flow cytometric software. The amount of anti-Trop-2 antibodies internalized into cells at each concentration was determined using the following formula: % internalization rate = 100 × (MFI₄°C- MFI₃₇°C) / MFI₄°C
(In general: Flow cytometry measures light scatter and fluorescence of single cells or particles in a stream.)

B1: humanized IgG A1,2X4 (antibody, V domains shown)
VH: QVQLQESGPGLVKPSETLSLTCTVSGFSLTSYGVNWIRQPPGKGLEWIGVMWAGGSTNYNSALMSRLTISKDTSKNQFSLKLSSVTAADTAVYYCARDENWDGAWFAYWGQGTLVTVSS
VL: DIVMTQSPDSLAVSLGERATINCKSSQSLLNSGTRKNYLAWYQQKPGQPPKLLISWASSRESGVPDRFSGSGSGTDFTLTISSLQAEDVAVYYCKQSYNLFTFGGGTKVEIKR
notes: Full-length IgG expressed in 293 cells; also called IgG HuA(1,2)/Lu(X4)
As usually defined, the Kd is the concentration at which binding is half-saturated. Lower therefore signals a tighter complex. One may read the koff as the rate constant with which the complex falls apart. For the molecule B1, the binding result in the assay with human EPCAM-His and with mouse Trop-2-His was “no binding” throughout. The Kd in assay [1] was 4.09 nM; in assay [2], 0.93 µg/mL. In assay [1], this molecule registered a koff of 0.000844 s⁻¹.
